Measured values as given in paper PMC5297747.

Legend:
[1] = target: bovine α-chymotrypsin (bovine)
[2] = target: bovine α-chymotrypsin (bovine); assay: progress curve of protease inhibition; 40 °C; buffer B (100 mM HEPES-NaOH pH 7.5, 200 mM NaCl, 10 mM CaCl2, 0.01% triton X-100, 0.1% glycerol); 1 mM Suc-AAPF-pNA or MeO-SucAAPV-pNA as substrate; various concentrations of Pnserpin; absorption at 410 nm; kass = kunc × (1 + [S]/KM)

stoichiometry of inhibition (SI), incubation at 20 °C; residual protease activity [1]: 9.49
stoichiometry of inhibition (SI), incubation at 30 °C; residual protease activity [1]: 5.8
stoichiometry of inhibition (SI), incubation at 40 °C; residual protease activity [1]: 4.76
stoichiometry of inhibition (SI), incubation at 50 °C; residual protease activity [1]: 2.21
kon [2]: 24600 M⁻¹ s⁻¹
Substance: Pnserpin (from UniProt B1YBN4 1-393) (natural protein)
